# Data: article PMC6238593, “Beetle luciferases with naturally red- and blue-shifted emission” (Life Science Alliance, 2018)
# Changes are numbered by the printed parent chain.
# Assays:
# [1] = biological target: T1, GBAv (blue-shifted green-emitting luciferase from A. vivianii) (Amydetes, UniProt A0A3F2YLV6); test: bioluminescence emission spectra; format: biochemical; conditions: pH 7.0 to 8.0
# T1 construct: full-length synthetic codon-optimised gene in pET28a+, E. coli BL21-CodonPlus-RIL, Ni and size-exclusion purified; monomer; PDB codes 6AAA, 6ABH, 6AC3 printed without assignment to protein
# T1 sequence (A0A3F2YLV6 1-547): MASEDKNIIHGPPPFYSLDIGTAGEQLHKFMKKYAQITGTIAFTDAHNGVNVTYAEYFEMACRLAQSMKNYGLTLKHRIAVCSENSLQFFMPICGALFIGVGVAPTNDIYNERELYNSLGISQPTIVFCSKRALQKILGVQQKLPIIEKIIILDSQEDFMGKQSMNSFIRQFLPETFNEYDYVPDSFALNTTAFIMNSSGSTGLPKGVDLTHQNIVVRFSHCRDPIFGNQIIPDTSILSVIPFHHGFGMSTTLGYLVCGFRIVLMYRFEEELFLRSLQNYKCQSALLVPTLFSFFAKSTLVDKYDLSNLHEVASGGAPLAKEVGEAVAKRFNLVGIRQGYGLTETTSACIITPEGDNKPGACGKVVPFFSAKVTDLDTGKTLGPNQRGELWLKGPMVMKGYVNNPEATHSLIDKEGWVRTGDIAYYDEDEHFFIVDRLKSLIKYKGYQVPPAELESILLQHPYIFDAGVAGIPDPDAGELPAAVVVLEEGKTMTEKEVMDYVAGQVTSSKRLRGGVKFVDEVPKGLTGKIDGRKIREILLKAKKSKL
# [2] = biological target: T2, REPh (red-emitting luciferase from P. hirtus) (Phrixothrix hirtus, UniProt Q9U4U7); test: differential scanning calorimetry; format: binding; conditions: 35 °C without ligand, Hepes 20 mM pH 7.8, MgCl2 10 mM, ligand 5 uM (methods) or 5 mM (Figure S10 legend)
# T2 construct: full-length synthetic codon-optimised gene in pET28-MHL, E. coli BL21-CodonPlus-RIL, Ni and size-exclusion purified; about 61 kDa monomer, tetramer in solution; PDB codes 6AAA, 6ABH, 6AC3 printed without assignment to protein
# T2 sequence (Q9U4U7 1-546): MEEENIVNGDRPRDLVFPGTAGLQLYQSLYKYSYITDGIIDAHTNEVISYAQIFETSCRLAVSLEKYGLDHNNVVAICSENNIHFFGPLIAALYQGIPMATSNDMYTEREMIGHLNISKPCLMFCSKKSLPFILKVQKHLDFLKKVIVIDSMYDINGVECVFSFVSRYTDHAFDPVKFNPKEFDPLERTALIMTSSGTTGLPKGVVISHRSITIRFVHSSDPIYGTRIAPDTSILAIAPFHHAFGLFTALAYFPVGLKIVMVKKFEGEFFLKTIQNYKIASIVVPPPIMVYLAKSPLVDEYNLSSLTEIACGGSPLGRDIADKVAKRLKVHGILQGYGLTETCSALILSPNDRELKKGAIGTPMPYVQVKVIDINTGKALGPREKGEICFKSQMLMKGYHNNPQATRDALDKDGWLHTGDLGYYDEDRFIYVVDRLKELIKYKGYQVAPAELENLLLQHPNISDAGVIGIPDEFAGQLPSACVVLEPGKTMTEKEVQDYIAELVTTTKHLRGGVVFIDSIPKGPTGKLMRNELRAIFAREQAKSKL
# [3] = biological target: T3, REPh (red-emitting luciferase from P. hirtus) (Phrixothrix hirtus, UniProt Q9U4U7, K522A); test: differential scanning calorimetry; format: binding; conditions: Hepes 20 mM pH 7.8, MgCl2 10 mM; ligand 5 uM (methods) or 5 mM (Figure S10 legend)
# T3 construct: full-length synthetic codon-optimised gene in pET28-MHL, E. coli BL21-CodonPlus-RIL, Ni and size-exclusion purified; about 61 kDa monomer, tetramer in solution; PDB codes 6AAA, 6ABH, 6AC3 printed without assignment to protein
# T3 sequence (Q9U4U7 1-546 K522A): T2 sequence (Q9U4U7 1-546) with K522A
# [4] = biological target: red-emitting luciferase from Phrixothrix hirtus, double mutant Y153A/F162A (Phrixothrix hirtus); test: SEC; Superdex 200 5/150 GL; MWs estimated with a gel filtration calibration kit
# [5] = biological target: red-emitting luciferase from Phrixothrix hirtus, mutant F162A (Phrixothrix hirtus); test: as above
# [6] = biological target: red-emitting luciferase from Phrixothrix hirtus, mutant Y153A (Phrixothrix hirtus); test: as above
# [7] = biological target: red-emitting luciferase from the glow-worm Phrixothrix hirtus, wild type (Phrixothrix hirtus); test: as above
# [8] = biological target: red-emitting luciferase from the glow-worm Phrixothrix hirtus, wild type (Phrixothrix hirtus); test: crystal structure; REPh free enzyme, P3(1)21 crystal form, 3.60 Å; PEG 3350 19-21%, bis-tris propane 100 mM pH 6.0, ammonium sulfate 200 mM
# [9] = biological target: red-emitting luciferase from the glow-worm Phrixothrix hirtus, wild type (Phrixothrix hirtus); test: crystal structure; REPh free enzyme, P1 crystal form, 3.05 Å; only the N-terminal domains seen; PEG 3350 19-21%, bis-tris propane 100 mM pH 6.0, ammonium sulfate 200 mM
compound,measurement,setting,value
Nc1ncnc2c1ncn2[C@@H]1O[C@H](COP(=O)(O)OP(=O)(O)OP(=O)(O)O)[C@@H](O)[C@H]1O [ATP],bioluminescence emission spectra,[1]; co-substrate luciferin,The emission of WT GBAv was pH-dependent
same,Tm,"[2]; two transitions with ligand, in °C (unit assumed)",36 and 41
same,Tm,[3],"signal was detectable only after the addition of substrate, luciferin or ATP"
O=C(O)[C@H]1CSC(c2nc3ccc(O)cc3s2)=N1 [firefly luciferin],bioluminescence emission spectra,[1]; co-substrate ATP,The emission of WT GBAv was pH-dependent
same,Tm,[2]; Tm with ligand,41 °C
"red-emitting luciferase from Phrixothrix hirtus, double mutant Y153A/F162A (enzyme)",stoichiometry N,[4],2
"red-emitting luciferase from Phrixothrix hirtus, mutant F162A (enzyme)",stoichiometry N,[5],2
"red-emitting luciferase from Phrixothrix hirtus, mutant Y153A (enzyme)",stoichiometry N,[6],2
"red-emitting luciferase from the glow-worm Phrixothrix hirtus, wild type (enzyme)",stoichiometry N,[7],4
same,stoichiometry N,[8],4
same,stoichiometry N,[9],8
